Patent US7951906B2, “Compounds capable of interacting with a cell-surface fibroblast growth factor receptor” (Enkam Pharmaceuticals A/S, priority 2002, dated 2011)
Blank lines part the entries; values can stand above or below the molecule they belong to.

Columns and labels:
hippocampal neurons = assay: Neurite outgrowth from hippocampal neurons; type: cell-based, rat; conditions: for neurite outgrowth in dose-response study: neurite length versus concentration
Method: Dissociated neurons from embryonic rat hippocampus (embryonic day 19), prepared as described (Skladchikova et al., 1999), were grown on Permanox plastic (Nunc) for 24 h at a density of 6000 cells/cm^2, at 37° C., 5% CO2 in Neurobasal medium containing 20 mM Hepes, 100 U/ml penicillin, 100 μg/ml streptomycin, 0.4% BSA supplemented with B27 (Gibco BRL) and the below specified compounds. After 24 h, cells were fixed with paraformaldehyde, stained with Coomassie Brilliant Blue R250 and the length of neurites was measured as described (Skladchikova et al, 1999).

[1] = target: interaction between the NCAM F3 modules 1, 2 and the FGFR modules 2, 3 (Rattus norvegicus, UniProt P13596); assay: biochemical
Chain of interaction between the NCAM F3 modules 1, 2 and the FGFR modules 2, 3 (P13596 507-705): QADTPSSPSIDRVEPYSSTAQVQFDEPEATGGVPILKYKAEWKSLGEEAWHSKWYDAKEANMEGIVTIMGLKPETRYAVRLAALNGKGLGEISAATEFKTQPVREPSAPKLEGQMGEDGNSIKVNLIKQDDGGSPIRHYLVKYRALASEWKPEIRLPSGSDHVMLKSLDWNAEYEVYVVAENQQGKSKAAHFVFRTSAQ

[2] = tested on: polyclonal antibody raised against the intact FGL-peptide; assay: Competitive ELISA of immunoreactivity with antibody raised against FGL-peptide; type: binding; conditions: rabbit serum
Excerpt: Antibody specifically recognising an epitope comprising SEQ ID NO: 1 (FGL-peptide) were raised in rabbits according the standard procedure (Gill B M, Barbosa J A, Dinh T Q, Garrod S, O'Connor D T: Chromogranin B: isolation from pheochromocytoma, N-terminal sequence, tissue distribution and secretory vesicle processing. Regul Peptides 33:223-35, 1991). Synthetic FGL-peptide was coupled to a carrier protein, KLH (Keyhole Limpets Hemocyanin). The peptide was mixed with Freunds incomplete adjuvant and the mixture was injected into rabbits. 208 μg peptide was used per immunisation (per rabbit).
Antibodies (serum) were tested for specificity by competitive ELISA using a series FGL-peptide truncated variants according to the protocol described in R. J. Jenny, T. L. Messier, L. A. Ouellette, and W. R. Church, Methods Enzymol. 222, 400 (1993). 100% immunoreactivity was ob-served only with the intact FGL-peptide consisting of SEQ ID NO: 1.

rat FGFR1 (IIIC isoform) = target: T1, rat FGFR1 (IIIC isoform) (Rattus norvegicus, UniProt Q04589); assay: FGFR1 phosphorylation, Assay 2 (HEK293 cells, His-tagged FGFR1); type: cell-based; conditions: 20 min, 5 μM F3 module 2, 25 μM monomeric FG loop peptide
T1 construct: expressed in transfected cells; host or cells: HEK293 cells, transient, pcDNA3.1(+)
T1 sequence (Q04589 22-822): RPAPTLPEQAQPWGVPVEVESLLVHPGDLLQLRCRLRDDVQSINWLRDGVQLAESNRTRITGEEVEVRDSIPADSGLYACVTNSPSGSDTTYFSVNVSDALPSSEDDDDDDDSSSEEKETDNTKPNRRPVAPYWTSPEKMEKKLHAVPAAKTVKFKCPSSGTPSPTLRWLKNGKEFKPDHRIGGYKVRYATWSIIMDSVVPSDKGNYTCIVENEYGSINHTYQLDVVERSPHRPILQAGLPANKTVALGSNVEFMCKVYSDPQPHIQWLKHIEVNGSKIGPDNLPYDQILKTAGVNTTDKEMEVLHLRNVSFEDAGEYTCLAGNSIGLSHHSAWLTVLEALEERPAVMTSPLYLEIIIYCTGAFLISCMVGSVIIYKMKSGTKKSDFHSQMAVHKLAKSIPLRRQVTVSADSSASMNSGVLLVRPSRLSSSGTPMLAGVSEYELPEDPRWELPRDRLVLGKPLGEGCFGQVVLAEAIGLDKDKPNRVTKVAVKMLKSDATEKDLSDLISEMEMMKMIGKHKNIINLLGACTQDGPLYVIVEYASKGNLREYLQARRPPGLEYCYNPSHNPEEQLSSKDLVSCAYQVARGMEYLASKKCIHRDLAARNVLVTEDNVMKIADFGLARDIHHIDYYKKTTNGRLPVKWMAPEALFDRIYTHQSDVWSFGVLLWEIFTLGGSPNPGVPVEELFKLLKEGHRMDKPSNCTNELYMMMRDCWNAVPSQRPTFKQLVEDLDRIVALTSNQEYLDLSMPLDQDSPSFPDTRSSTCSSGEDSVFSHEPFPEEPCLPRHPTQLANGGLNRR
Method: Assay 2: The cDNA for the rat FGFR1 (IIIC isoform) was cloned by RT-PCR using RNA isolated from the rat PC12 cell line and inserted into a pcDNA3.1(+) plasmid (invitrogen), which allows expression of FGFR1 fused to the N-terminal of hexahistidine. ˜8×10^5 HEK293 cells were cultured for 24 h in 60 mm plates in full medium (DMEM 1965 supplemented with 10% FCS, 100 U/ml penicillin, 100 μg/ml streptomycin and […] Glutamax) and then transfected with 0.2 μg plasmid (with FGFR) using the LipofectAMIN PLUS™ reagent kit according to the manufacturer's instructions (Gibco BRL). Cells were grown for another 24 hrs in full medium, and then shifted to starvation media (DMEM 1965) overnight. FGFR transfected cells were stimulated for 20 min with the specified compounds, lysed in 8M urea, 1 mM orthovanadate (in PBS) and purified from the lysate via the His-tag as follows: The lysate was loaded on Ni^2+/NTA-sepharose (Qiagen), washed with lysis buffer plus 10 mM imidazole, and the FGFR was eluted with lysis buffer plus 250 mM imidazole. The purified FGFR was analysed by immunoblotting using anti-pentahis (Qiagen) or anti-phosphotyrosine (PY20, Transduction Laboratories) antibodies. The bands were visualised by chemilumiscense and the band density was measured using a GeneGnome apparatus (SynGene).

FGFR1 Ig modules 2, 3 = target: T2, FGFR1 Ig modules 2, 3 (Mus musculus, UniProt P16092); assay: SPR binding to immobilized FGFR Ig modules 2, 3
T2 construct: amino acids 249-365 and 141-365 of FGFR (swissprot p16092), respectively; made in house; host or cells: Drosophila S2 cells
T2 sequence (P16092 141-365): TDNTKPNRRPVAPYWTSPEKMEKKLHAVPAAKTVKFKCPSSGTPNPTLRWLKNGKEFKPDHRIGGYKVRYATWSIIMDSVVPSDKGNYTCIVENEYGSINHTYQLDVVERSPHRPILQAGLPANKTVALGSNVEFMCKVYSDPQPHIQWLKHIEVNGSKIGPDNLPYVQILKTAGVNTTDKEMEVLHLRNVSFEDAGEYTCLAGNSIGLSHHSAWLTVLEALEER
Excerpt: The NCAM F3 modules 1, 2 (without expression of exons a, AAG), and FGFR1 Ig modules 2, 3 were produced using rat NCAM cDNA and mouse FGFR1 (IIIC iso-form) cDNA. The F3 module 1 and the combined F3 modules 1, 2 consist of […] (SEQ ID NO:173) and amino acids 507-611 and 507-705 of NCAM (swissprot p13596), respectively. […] The FGFR Ig module 2 consists of […] […] The FGFR Ig module 3 and the combined Ig modules 2, 3 consist of […] (SEQ ID NO:174) and amino acids 249-365 and 141-365 of FGFR (swissprot p16092), respectively. […] All the proteins were purified by affinity chromatography using Ni2^+−NTA resin (Qiagen, USA) and/or ion exchange chromatography and gel filtration. ^15N-labelled F3 module 2 was produced as described (Thomsen et al., 1996). The NCAM Ig modules 1, 2 and 3 (RV and amino acids 20-308 of rat NCAM, swissprot p13596) was produced as described (Soroka et al., 2002).
The flow-rate was 5 μl/min. […] The FGFR Ig modules 2, 3 were immobilized on a sensor chip CM5 using amine coupling kit (Biosensor AB) as follows: 1) the two halves of the chip (designated Fc1 and Fc2) were activated by 20 μl activation solution; 2) the protein was immobilized on Fc1 using 12 μl 20 μg/ml protein in 10 mM sodium phosphate buffer pH 6.0; 3) Fc1 and Fc2 were blocked by 35 μl blocking solution. […] The resulting curve was used for analysis.

human FGFR1 = target: T3, human FGFR1 (Homo sapiens, UniProt P11362); assay: FGFR1 phosphorylation, Assay 1 (TREX-293 cells, StrepII-tagged FGFR1); type: cell-based; conditions: 20 min, 5 μM F3 module, 2.5 μM dendrimeric FG loop peptide
T3 construct: expressed in transfected cells; host or cells: TREX-293 cells (Invitrogen), Flp-In system
T3 sequence (P11362 22-822): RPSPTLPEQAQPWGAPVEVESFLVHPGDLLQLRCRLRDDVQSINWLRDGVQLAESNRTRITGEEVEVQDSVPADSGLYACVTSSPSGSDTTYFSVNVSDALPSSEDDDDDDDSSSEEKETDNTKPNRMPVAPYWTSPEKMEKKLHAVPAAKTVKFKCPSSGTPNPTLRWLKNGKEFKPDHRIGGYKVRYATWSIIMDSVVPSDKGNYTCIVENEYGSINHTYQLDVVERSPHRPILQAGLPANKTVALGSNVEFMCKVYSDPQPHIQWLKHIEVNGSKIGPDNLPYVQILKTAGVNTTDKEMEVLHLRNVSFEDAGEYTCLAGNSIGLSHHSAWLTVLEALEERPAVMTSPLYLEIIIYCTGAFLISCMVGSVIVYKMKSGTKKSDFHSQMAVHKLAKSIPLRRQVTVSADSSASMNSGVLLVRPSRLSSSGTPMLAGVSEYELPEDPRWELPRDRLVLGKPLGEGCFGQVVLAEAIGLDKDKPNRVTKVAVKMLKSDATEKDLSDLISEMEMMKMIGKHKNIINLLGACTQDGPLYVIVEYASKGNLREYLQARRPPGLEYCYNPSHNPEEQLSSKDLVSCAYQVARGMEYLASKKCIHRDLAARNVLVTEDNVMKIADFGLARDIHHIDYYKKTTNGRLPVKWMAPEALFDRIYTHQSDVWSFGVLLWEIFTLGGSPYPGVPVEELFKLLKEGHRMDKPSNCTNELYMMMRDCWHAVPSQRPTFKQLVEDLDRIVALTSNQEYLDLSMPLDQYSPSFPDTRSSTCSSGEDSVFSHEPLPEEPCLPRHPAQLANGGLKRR
Method: Assay 1: TREX-293 cells (Invitrogen) were stably transfected with human FGFR1 having a C-terminal StrepII-tag (IBA biotech), using the Flp-In system (Invitrogen). For the study of phosphorylation: ˜2×10^7 cells were starved overnight before stimulation for 20 min with the specified compounds. Cells were lysed in PBS with 1% NP-40 and phosphatase inhibitors cocktail set II (Calbiochem). The cleared cell lysates were incubated with 50 μl agarose-coupled anti-phosphotyrosine antibodies (4G10-AC, Upstate Biotechnologies) for 3 hrs at 4° C. Care was taken to calibrate the amount of cells employed, so that considerable increases in phosphorylated FGFR could be detected. The bound protein was washed, eluted using 150 mM phenyl phosphate (Sigma), precipitated by 12% trichloroacetic acid, washed in cold acetone and dissolved in SDS-PAGE sample buffer. Immunoblotting was performed using antibodies against the recombinant StrepII-tag (IBA biotech). For immunoprecipitation: ˜1×10^7 cells were transiently transfected with the 180 kDa NCAM isoform or a control vector. Cells were incubated for 24 h and then starved overnight. After lysis, FGFR was purified on a StrepTactin Minicolumn (IBA Biotech) according to the manufacturer's instructions, and analyzed by immunoblotting with polyclonal antibodies against human NCAM.

FGFR Ig module 2 = target: T4, FGFR Ig module 2 (Mus musculus, UniProt P16092); assay: 15N-HSQC NMR chemical shift changes of NCAM F3 module 2 with FGFR Ig module 2; type: binding; conditions: 50 μM 15N-labeled F3 module 2, 1 mM FGFR Ig module 2
T4 sequence (P16092 140-251): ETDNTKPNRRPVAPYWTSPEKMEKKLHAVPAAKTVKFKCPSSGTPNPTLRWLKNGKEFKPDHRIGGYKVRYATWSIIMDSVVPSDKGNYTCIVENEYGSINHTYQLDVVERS
Excerpt: The NCAM F3 modules 1, 2 (without expression of exons a, AAG), and FGFR1 Ig modules 2, 3 were produced using rat NCAM cDNA and mouse FGFR1 (IIIC iso-form) cDNA. The F3 module 1 and the combined F3 modules 1, 2 consist of […] (SEQ ID NO:173) and amino acids 507-611 and 507-705 of NCAM (swissprot p13596), respectively. […] The FGFR Ig module 2 consists of […] […] The FGFR Ig module 3 and the combined Ig modules 2, 3 consist of […] (SEQ ID NO:174) and amino acids 249-365 and 141-365 of FGFR (swissprot p16092), respectively. […]
The following samples were used for the structure determination of the NCAM F3 module 2: 2 mM module in H2O or D2O and 1 mM ^15N-labelled module in H2O. […] The following NMR spectra were recorded and used for assignment: TOCSY in H2O or D2O (45 and 70 ms mixing time), NOESY in H2O or D2O (80 and 200 ms mixing time), DQFCOSY, ^15N-HSQC, ^15N-TOCSY-HSQC (70 ms mixing time), and ^15N-NOESY-HSQC (125 ms mixing time) (Bodenhausen and Ruben, 1980; Braunsweiler and Ernst, 1983; Kumar et al., 1981; Piantini et al., 1982; Zhang et al., 1994). […] All spectra were recorded at 298 K. The assignment of the ^1H and ^15N resonances were performed using the program PRONTO (Kjaer et al., 1994). […]

Ki [1]: 370 ± 50 µM
Molecule: Nc1ncnc2c1ncn2[C@@H]1O[C@H](COP(=O)(O)OP(=O)(O)OP(=O)(O)O)[C@@H](O)[C@H]1O [ATP, adenosine triphosphate, reference compound]
inhibition of the neuritogenic effect induced by the F3 module 2 (hippocampal neurons; 5 μM F3 module, ATP or AMP-PCP 0.4, 1.0 mM): substantially reduced
inhibition of the neuritogenic effect induced by the FG loop peptide (hippocampal neurons; 50 μM peptide, ATP or AMP-PCP 0.4, 1.0 mM): completely inhibited

Molecule: FG loop peptide: peptide corresponding to residues E^72-A^86 of the NCAM F3 module 2 (EVYVVAENQQGKSKA; NCAM Fn III, 2 [Swiss-Prot P13591] FGFR binding motif)
immunoreactivity [2]: 100%
increase of FGFR phosphorylation compared to control cells (rat FGFR1 (IIIC isoform)): ~100%
neurite outgrowth in dose-response study (hippocampal neurons; hippocampal neurons): induced neurite outgrowth with a bell-shaped curve
binding to the immobilized FGFR modules (FGFR1 Ig modules 2, 3): cannot be detected

increase of FGFR phosphorylation compared to control cells (rat FGFR1 (IIIC isoform)): approx. 150%
FGFR phosphorylation compared to the non-stimulated cells (human FGFR1): substantially increase
changes of the chemical shifts in the presence of the Ig module 2 (FGFR Ig module 2): No significant changes
B1: NCAM F3 module 2: recombinant protein: AG and amino acids 612-705 of rat NCAM (swissprot p13596) (protein)
chain: AGPSAPKLEGQMGEDGNSIKVNLIKQDDGGSPIRHYLVKYRALASEWKPEIRLPSGSDHVMLKSLDWNAEYEVYVVAENQQGKSKAAHFVFRTSAQ
stimulation of neurite outgrowth / length of neurites (hippocampal neurons; hippocampal neurons, 24 h, 5 μM F3 module 2): substantially increased
neurite outgrowth in dose-response study (hippocampal neurons; hippocampal neurons): induced neurite outgrowth with a bell-shaped curve
